# Patent EP1214598B1
# No end group written: not given here.
# Target: PHF43 (tau fragment generated by GluC digestion of K19, 43 residues) (human)
# Assay: disulfide dimerization via Cys322, after reverse phase HPLC
binder,measurement,value
"NLKHQPGGGKVQIVYKPVDLSKVTSKCGSLGNIHHKPGGGQVE (also: dimer via Cys322-Cys322 disulfide (without DTT)) [PHF43 (tau fragment generated by GluC digestion of K19, 43 residues)]",dimer fraction,100%
